Each block holds one binder with its values, some of them ahead of it.
Columns and labels:
Assay in all cases: holdup assay
Design in all cases: key: below the threshold = too weak to quantify, mostly under pKd 3.1 to 4
[1] = target: T1, GRIP1_2, Q9Y3R0
T1 sequence (Q9Y3R0 145-248, limits assumed, looked up): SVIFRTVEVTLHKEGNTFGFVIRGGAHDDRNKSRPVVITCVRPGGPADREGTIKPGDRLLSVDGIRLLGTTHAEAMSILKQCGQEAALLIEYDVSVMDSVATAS

[2] = target: SNX27, Q96L92
[3] = target: GRIP2_7, Q9C0E4
[4] = target: MAGI2_5, Q86UL8
Chain of MAGI2_5, Q86UL8 (Q86UL8 915-1017): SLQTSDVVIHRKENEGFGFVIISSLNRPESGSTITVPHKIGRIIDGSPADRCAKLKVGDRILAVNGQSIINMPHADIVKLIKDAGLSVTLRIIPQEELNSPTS

[5] = target: GORASP1, Q9BQQ3
Chain of GORASP1, Q9BQQ3 (Q9BQQ3 1-208): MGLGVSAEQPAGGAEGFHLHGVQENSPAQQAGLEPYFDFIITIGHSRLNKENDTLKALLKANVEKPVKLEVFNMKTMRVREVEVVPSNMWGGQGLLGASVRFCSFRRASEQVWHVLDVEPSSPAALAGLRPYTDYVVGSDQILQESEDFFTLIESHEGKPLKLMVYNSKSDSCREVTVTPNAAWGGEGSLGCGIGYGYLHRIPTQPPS

[6] = target: Inadl_3, Q8NI35
Chain of Inadl_3, Q8NI35 (Q8NI35 359-469): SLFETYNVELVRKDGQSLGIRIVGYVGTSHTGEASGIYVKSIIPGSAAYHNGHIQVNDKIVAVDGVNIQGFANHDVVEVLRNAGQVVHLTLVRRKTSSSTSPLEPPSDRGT

[7] = target: T2, GRIP1_5, Q9Y3R0
T2 sequence (Q9Y3R0 568-668, limits assumed, looked up): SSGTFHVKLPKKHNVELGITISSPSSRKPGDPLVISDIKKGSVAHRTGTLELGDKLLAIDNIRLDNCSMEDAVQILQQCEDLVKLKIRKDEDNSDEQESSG

[8] = target: PDZRN4_1, Q6ZMN7
Chain of PDZRN4_1, Q6ZMN7 (Q6ZMN7 213-318): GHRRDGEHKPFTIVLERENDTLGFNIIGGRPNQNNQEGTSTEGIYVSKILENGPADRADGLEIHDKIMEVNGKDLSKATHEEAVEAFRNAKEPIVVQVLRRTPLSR

[9] = target: MAST2, Q6P0Q8
Chain of MAST2, Q6P0Q8 (Q6P0Q8 1099-1202): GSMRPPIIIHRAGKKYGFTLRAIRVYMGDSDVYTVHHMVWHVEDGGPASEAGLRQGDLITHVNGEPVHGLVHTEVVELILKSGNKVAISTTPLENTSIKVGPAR

[10] = target: GIPC2, Q8TF65
Chain of GIPC2, Q8TF65 (Q8TF65 112-203): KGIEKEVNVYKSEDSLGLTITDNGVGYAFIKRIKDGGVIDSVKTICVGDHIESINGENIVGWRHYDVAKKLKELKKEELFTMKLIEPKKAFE

[11] = target: Inadl_2, Q8NI35
Chain of Inadl_2, Q8NI35 (Q8NI35 238-335): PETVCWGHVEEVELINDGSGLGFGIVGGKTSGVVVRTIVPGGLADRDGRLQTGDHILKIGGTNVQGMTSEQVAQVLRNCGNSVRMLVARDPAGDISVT

[12] = target: GRID2IP_2, A4D2P6
Chain of GRID2IP_2, A4D2P6 (A4D2P6 272-370): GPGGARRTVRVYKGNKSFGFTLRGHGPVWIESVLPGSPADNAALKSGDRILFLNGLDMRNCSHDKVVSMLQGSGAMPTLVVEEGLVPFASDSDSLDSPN

[13] = target: T3, RAPGEF6, Q8TEU7
T3 sequence (Q8TEU7 525-625, limits assumed, looked up): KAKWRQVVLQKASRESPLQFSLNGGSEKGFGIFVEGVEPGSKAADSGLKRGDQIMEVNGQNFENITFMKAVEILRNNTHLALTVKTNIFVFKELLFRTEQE

[14] = target: TJP2_1, Q9UDY2
Chain of TJP2_1, Q9UDY2 (Q9UDY2 24-128): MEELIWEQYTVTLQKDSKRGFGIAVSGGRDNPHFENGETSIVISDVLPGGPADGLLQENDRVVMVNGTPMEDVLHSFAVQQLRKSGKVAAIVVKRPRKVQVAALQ

[15] = target: Inadl_6, Q8NI35
Chain of Inadl_6, Q8NI35 (Q8NI35 1058-1167): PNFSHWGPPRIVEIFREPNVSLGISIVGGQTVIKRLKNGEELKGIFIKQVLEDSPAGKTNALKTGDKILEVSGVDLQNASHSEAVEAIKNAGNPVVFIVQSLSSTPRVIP

[16] = target: GRIP2_6, Q9C0E4
Chain of GRIP2_6, Q9C0E4 (Q9C0E4 648-740): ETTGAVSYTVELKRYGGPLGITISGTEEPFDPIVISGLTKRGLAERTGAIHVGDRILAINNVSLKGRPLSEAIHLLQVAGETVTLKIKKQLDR

[17] = target: T4, PDZD2_2, O15018
T4 sequence (O15018 329-429, limits assumed, looked up): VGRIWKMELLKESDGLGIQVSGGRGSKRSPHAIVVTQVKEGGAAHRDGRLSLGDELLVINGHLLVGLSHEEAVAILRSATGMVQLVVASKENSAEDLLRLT

[18] = target: T5, DFNB31_2, Q9P202
T5 sequence (Q9P202 274-371, limits assumed, looked up): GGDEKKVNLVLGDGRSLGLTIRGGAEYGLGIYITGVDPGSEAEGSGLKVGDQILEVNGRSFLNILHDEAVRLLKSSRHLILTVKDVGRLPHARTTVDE

[19] = target: AHNAK1, Q09666
Chain of AHNAK1, Q09666 (Q09666 4-100): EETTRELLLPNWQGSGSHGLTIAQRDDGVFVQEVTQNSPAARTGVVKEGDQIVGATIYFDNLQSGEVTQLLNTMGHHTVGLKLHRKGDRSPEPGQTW

[20] = target: Inadl_10, Q8NI35
Chain of Inadl_10, Q8NI35 (Q8NI35 1673-1763): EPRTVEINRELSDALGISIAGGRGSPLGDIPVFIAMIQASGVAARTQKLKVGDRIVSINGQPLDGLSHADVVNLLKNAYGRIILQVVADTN

[21] = target: MAGI1_2, Q96QZ7
Chain of MAGI1_2, Q96QZ7 (Q96QZ7 456-580): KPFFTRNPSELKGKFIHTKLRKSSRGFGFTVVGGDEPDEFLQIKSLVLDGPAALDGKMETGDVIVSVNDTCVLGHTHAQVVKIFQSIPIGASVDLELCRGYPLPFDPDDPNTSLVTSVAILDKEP

[22] = target: T6, PCLO, Q9Y6V0
T6 sequence (Q9Y6V0 4491-4600, limits assumed, looked up): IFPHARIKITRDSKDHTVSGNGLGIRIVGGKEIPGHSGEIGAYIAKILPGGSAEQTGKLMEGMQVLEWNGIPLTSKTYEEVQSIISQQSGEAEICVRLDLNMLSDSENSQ

[23] = target: LIMK2, P53671
Chain of LIMK2, P53671 (P53671 143-248): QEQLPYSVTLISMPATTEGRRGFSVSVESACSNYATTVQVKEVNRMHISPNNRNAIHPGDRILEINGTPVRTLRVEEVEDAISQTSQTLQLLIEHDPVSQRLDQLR

[24] = target: T7, ARHGEF11, O15085
T7 sequence (O15085 42-136, limits assumed, looked up): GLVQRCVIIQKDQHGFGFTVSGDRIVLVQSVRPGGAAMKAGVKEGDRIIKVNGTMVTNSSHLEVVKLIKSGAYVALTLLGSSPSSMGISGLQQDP

[25] = target: T8, MPP6, Q9NZW5
T8 sequence (Q9NZW5 125-219, limits assumed, looked up): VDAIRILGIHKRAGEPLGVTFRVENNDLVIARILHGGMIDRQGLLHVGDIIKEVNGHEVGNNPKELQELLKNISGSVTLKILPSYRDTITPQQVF

[26] = target: Inadl_8, Q8NI35
Chain of Inadl_8, Q8NI35 (Q8NI35 1425-1530): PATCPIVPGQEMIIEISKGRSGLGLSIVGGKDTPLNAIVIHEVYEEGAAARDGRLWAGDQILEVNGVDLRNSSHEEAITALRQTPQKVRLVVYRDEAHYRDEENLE

[27] = target: T9, GRIP1_3, Q9Y3R0
T9 sequence (Q9Y3R0 247-346, limits assumed, looked up): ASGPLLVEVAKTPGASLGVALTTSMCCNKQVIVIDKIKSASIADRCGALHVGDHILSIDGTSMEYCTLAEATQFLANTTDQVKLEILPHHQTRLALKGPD

[28] = target: T10, GRIP1_7, Q9Y3R0
T10 sequence (Q9Y3R0 999-1096, limits assumed, looked up): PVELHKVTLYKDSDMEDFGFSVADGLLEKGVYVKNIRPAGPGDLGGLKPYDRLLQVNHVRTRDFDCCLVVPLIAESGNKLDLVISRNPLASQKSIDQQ

[29] = modified: phospho on T at position -1 from the C-terminal residue
[30] = plain residues with an end cap or a label only (N-terminal biotin on a linker: ado-ado)
[31] = modified: phospho on T at position -2 from the C-terminal residue

Chain of GRIP2_7, Q9C0E4 (Q9C0E4 934-1023): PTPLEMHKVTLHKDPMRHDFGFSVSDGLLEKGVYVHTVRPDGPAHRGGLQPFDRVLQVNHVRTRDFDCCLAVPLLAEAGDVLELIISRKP

- pKd [1, 29]: below the threshold
- pKd [2, 29]: 3.92
- pKd [3, 29]: below the threshold
- pKd [4, 29]: 3.56
- pKd [5, 29]: 3.6
- pKd [6, 29]: 3.76
- pKd [7, 29]: below the threshold
- pKd [8, 29]: 4.31
- pKd [9, 29]: 5.17
- pKd [10, 29]: 3.55
- pKd [11, 29]: 3.45
- pKd [12, 29]: 4.22
- pKd [13, 29]: 3.38
- pKd [14, 29]: below the threshold
- pKd [15, 29]: 3.52
- pKd [16, 29]: below the threshold
- pKd [17, 29]: 4.04
- pKd [18, 29]: below the threshold
- pKd [19, 29]: 3.52
- pKd [20, 29]: 3.54
- pKd [21, 29]: 4.32
- pKd [22, 29]: below the threshold
- pKd [23, 29]: below the threshold
- pKd [24, 29]: 4.29
- pKd [25, 29]: below the threshold
- pKd [26, 29]: 3.57
- pKd [27, 29]: 3.34
- pKd [28, 29]: 3.48
Binder: RRVRKLPSTTL [RPS6KA1_-1P, Q15418]

- pKd [1, 30]: below the threshold
- pKd [2, 30]: 4.68
- pKd [3, 30]: below the threshold
- pKd [4, 30]: 4.28
- pKd [5, 30]: below the threshold
- pKd [6, 30]: below the threshold
- pKd [7, 30]: below the threshold
- pKd [8, 30]: 3.9
- pKd [9, 30]: 5.51
- pKd [10, 30]: below the threshold
- pKd [11, 30]: below the threshold
- pKd [12, 30]: 4.38
- pKd [13, 30]: below the threshold
- pKd [14, 30]: below the threshold
- pKd [15, 30]: below the threshold
- pKd [16, 30]: below the threshold
- pKd [17, 30]: 3.97
- pKd [18, 30]: below the threshold
- pKd [19, 30]: below the threshold
- pKd [20, 30]: below the threshold
- pKd [21, 30]: below the threshold
- pKd [22, 30]: below the threshold
- pKd [23, 30]: below the threshold
- pKd [24, 30]: 4.18
- pKd [25, 30]: below the threshold
- pKd [26, 30]: below the threshold
- pKd [27, 30]: below the threshold
- pKd [28, 30]: below the threshold
Binder: LEPAVRSSEL [SH2D3C, Q8N5H7]

- pKd [1, 31]: 3.52
- pKd [2, 31]: below the threshold
- pKd [3, 31]: below the threshold
- pKd [4, 31]: below the threshold
- pKd [5, 31]: 3.75
- pKd [6, 31]: below the threshold
- pKd [7, 31]: below the threshold
- pKd [8, 31]: below the threshold
- pKd [9, 31]: below the threshold
- pKd [10, 31]: below the threshold
- pKd [11, 31]: below the threshold
- pKd [12, 31]: below the threshold
- pKd [13, 31]: below the threshold
- pKd [14, 31]: below the threshold
- pKd [15, 31]: below the threshold
- pKd [16, 31]: below the threshold
- pKd [17, 31]: below the threshold
- pKd [18, 31]: below the threshold
- pKd [19, 31]: below the threshold
- pKd [20, 31]: below the threshold
- pKd [21, 31]: below the threshold
- pKd [22, 31]: below the threshold
- pKd [23, 31]: below the threshold
- pKd [24, 31]: below the threshold
- pKd [25, 31]: below the threshold
- pKd [26, 31]: below the threshold
- pKd [27, 31]: below the threshold
- pKd [28, 31]: 3.63
Binder: RRVRKLPSTTL [RPS6KA1_-2P, Q15418]

- pKd [1, 30]: below the threshold
- pKd [2, 30]: 4.93
- pKd [3, 30]: below the threshold
- pKd [4, 30]: below the threshold
- pKd [5, 30]: below the threshold
- pKd [6, 30]: below the threshold
- pKd [7, 30]: below the threshold
- pKd [8, 30]: 3.75
- pKd [9, 30]: 4.65
- pKd [10, 30]: below the threshold
- pKd [11, 30]: below the threshold
- pKd [12, 30]: 3.92
- pKd [13, 30]: below the threshold
- pKd [14, 30]: 3.97
- pKd [15, 30]: below the threshold
- pKd [16, 30]: below the threshold
- pKd [17, 30]: below the threshold
- pKd [18, 30]: below the threshold
- pKd [19, 30]: below the threshold
- pKd [20, 30]: below the threshold
- pKd [21, 30]: 4.82
- pKd [22, 30]: below the threshold
- pKd [23, 30]: below the threshold
- pKd [24, 30]: 3.89
- pKd [25, 30]: below the threshold
- pKd [26, 30]: 4.29
- pKd [27, 30]: below the threshold
- pKd [28, 30]: below the threshold
Binder: SMLNRRTTPV [CACNG4, Q9UBN1]

- pKd [1, 30]: below the threshold
- pKd [2, 30]: 3.84
- pKd [3, 30]: 4.08
- pKd [4, 30]: below the threshold
- pKd [5, 30]: 3.92
- pKd [6, 30]: below the threshold
- pKd [7, 30]: below the threshold
- pKd [8, 30]: below the threshold
- pKd [9, 30]: 4.15
- pKd [10, 30]: below the threshold
- pKd [11, 30]: 3.51
- pKd [12, 30]: below the threshold
- pKd [13, 30]: below the threshold
- pKd [14, 30]: below the threshold
- pKd [15, 30]: below the threshold
- pKd [16, 30]: below the threshold
- pKd [17, 30]: below the threshold
- pKd [18, 30]: below the threshold
- pKd [19, 30]: below the threshold
- pKd [20, 30]: below the threshold
- pKd [21, 30]: below the threshold
- pKd [22, 30]: below the threshold
- pKd [23, 30]: below the threshold
- pKd [24, 30]: 4.09
- pKd [25, 30]: below the threshold
- pKd [26, 30]: below the threshold
- pKd [27, 30]: below the threshold
- pKd [28, 30]: below the threshold
Binder: GQSVDLVFPV [AKIP1, Q9NQ31]

— article PMC9482650, “Quantitative fragmentomics allow affinity mapping of interactomes” (Nature Communications, 2022)
